The test system of the series is Δ40p53β (TS, purified). The series can be described thus: SPR. The following applies: Hill slope fit; SPR: 25 mM HEPES pH 7.5, 200 mM NaCl, 0.5 mM TCEP, 0.005% Tween-20, 20 °C; pull-down: 50 mM HEPES pH 7.5, 200 mM NaCl, 0.1% Tween-20, 0.5 mM TCEP, 4 °C.

p21 RE 20 bp showed a binding signal (fold lower affinity than DBD-OD) of 280.
